Test results as given in PMC3589550.

Target: HAUSP^62–205 (HAUSP TRAF domain) (UniProt Q93009)
Test: ITC

HAUSP^62–205 (HAUSP TRAF domain), sequence (Q93009 62-205): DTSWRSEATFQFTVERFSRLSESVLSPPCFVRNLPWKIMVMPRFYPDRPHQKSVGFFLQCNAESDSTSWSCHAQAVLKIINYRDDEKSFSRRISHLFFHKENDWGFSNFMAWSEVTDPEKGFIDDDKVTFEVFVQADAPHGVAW

Ka [M⁻¹]	Substance
65000	p53^350–364 peptide (from UniProt P04637 350-364)
67000	p53^355–369 peptide (from UniProt P04637 355-369)
